Laboratory results: article PMC13269782
One block for each substance: values may come before it.

Assays:
Cx43, human (human) = Cx43, human (human) (UniProt P17302)
Cx32 (human) = Cx32 (human) (UniProt P08034)
Cx31.3, human (human) = Cx31.3, human (human) (UniProt Q8NFK1)
Cx26, human (human) = Cx26, human (human) (UniProt P29033)
Cx45, human (human) = Cx45, human (human) (UniProt P36383)
Cx30, human (human) = Cx30, human (human) (UniProt O95452)
Cx47, human (human) = molecular target: T1, Cx47, human (human) (UniProt Q5T442)
T1 sequence: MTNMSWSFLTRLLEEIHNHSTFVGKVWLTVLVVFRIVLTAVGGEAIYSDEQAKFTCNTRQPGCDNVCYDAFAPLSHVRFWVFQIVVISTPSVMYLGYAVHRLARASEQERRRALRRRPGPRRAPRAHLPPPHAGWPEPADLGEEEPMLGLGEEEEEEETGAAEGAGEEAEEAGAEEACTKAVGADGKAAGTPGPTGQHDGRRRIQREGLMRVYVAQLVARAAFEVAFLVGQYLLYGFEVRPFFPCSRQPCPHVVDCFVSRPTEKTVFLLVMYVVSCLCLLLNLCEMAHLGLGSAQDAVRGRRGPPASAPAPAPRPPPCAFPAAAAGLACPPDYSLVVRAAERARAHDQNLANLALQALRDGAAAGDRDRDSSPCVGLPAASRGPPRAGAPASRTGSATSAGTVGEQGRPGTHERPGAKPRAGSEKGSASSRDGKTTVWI

Cx36 K238E-E230K (human) = Cx36 K238E-E230K (human) (UniProt Q9UKL4)
Cx36 E230K (human) = Cx36 E230K (human) (UniProt Q9UKL4)
Cx36 K238E-E239K (human) = Cx36 K238E-E239K (human) (UniProt Q9UKL4)
Cx36 E239K (human) = Cx36 E239K (human) (UniProt Q9UKL4)
Cx36 K238Q (human) = Cx36 K238Q (human) (UniProt Q9UKL4)
[1] = molecular target: Connexin36 (Cx36), human, wildtype (human) (UniProt Q9UKL4)
Cx36 E230K-E239K (human) = Cx36 E230K-E239K (human) (UniProt Q9UKL4)
Cx36 K238A (human) = Cx36 K238A (human) (UniProt Q9UKL4)
Cx36 K238E (human) = Cx36 K238E (human) (UniProt Q9UKL4)
[2] = molecular target: Cx36 E230K-E239K-E241K (human) (UniProt Q9UKL4)
Cx36 E241A (human) = Cx36 E241A (human) (UniProt Q9UKL4)
Cx36 E241K (human) = Cx36 E241K (human) (UniProt Q9UKL4)
[3] = molecular target: Cx36 K238E-E230K-E239K (human) (UniProt Q9UKL4)
[4] = molecular target: Cx36 K238E-E230K-E239K-E241K (human) (UniProt Q9UKL4)

Chain of Connexin36 (Cx36), human, wildtype (Q9UKL4 whole entry): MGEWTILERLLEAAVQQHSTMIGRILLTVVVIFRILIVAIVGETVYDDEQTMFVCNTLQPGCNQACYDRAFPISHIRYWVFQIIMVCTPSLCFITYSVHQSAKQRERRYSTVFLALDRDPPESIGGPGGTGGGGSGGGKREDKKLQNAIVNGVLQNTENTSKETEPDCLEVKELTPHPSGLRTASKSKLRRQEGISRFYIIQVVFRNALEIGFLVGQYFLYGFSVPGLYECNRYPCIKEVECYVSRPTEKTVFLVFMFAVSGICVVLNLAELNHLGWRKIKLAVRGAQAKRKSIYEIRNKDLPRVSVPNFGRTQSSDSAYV
Chain of Cx30, human (human) (O95452 whole entry): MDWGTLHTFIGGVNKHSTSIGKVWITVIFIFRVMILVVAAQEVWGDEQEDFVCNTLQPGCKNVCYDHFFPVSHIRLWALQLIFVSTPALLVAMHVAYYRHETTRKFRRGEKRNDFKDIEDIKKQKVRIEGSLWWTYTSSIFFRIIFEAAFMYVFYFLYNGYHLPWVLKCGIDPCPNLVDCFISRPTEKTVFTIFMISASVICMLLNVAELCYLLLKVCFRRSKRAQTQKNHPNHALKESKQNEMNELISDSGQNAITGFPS
Chain of Cx30, human (O95452 whole entry): as above
Chain of Cx31.3, human (Q8NFK1 whole entry): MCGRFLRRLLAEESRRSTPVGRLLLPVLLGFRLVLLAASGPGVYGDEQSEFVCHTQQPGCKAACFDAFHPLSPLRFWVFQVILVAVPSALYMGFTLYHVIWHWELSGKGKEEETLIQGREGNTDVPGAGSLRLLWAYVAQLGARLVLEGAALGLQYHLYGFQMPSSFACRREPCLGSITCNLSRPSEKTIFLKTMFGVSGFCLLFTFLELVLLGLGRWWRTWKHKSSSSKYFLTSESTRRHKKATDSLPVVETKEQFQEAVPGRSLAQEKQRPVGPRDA
Chain of Cx31.3, human (human) (Q8NFK1 whole entry): as above
Chain of Cx32 (human) (P08034 whole entry): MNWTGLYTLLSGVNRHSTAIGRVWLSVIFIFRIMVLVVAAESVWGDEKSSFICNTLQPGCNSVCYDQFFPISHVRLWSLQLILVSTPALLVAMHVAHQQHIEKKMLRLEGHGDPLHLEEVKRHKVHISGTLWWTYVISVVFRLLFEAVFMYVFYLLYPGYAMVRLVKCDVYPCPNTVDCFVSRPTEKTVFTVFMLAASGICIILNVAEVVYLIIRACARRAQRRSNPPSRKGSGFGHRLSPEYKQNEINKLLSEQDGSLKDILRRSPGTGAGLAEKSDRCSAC
Chain of Cx32 (P08034 whole entry): as above
Chain of Cx45, human (P36383 whole entry): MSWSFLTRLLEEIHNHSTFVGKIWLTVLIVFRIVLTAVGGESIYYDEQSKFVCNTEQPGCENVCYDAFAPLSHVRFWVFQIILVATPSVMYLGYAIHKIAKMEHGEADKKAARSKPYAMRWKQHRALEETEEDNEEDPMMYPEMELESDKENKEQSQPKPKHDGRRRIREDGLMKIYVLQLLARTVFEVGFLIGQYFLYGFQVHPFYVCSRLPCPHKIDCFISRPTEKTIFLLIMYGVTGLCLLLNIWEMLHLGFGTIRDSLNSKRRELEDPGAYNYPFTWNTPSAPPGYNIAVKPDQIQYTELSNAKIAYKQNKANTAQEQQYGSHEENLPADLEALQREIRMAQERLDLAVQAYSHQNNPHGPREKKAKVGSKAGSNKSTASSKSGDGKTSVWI
Chain of Cx45, human (human) (P36383 whole entry): as above
Chain of Cx43, human (P17302 whole entry): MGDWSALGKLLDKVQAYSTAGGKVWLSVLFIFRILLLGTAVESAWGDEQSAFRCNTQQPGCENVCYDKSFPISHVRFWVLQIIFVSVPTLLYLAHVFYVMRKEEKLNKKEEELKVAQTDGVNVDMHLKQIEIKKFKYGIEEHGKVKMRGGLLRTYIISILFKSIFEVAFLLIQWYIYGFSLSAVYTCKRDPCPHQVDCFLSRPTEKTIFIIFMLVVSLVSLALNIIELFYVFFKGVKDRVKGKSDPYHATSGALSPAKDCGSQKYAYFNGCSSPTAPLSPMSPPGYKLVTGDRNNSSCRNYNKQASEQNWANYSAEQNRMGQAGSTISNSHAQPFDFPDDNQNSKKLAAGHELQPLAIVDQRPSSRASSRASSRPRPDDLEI
Chain of Cx43, human (human) (P17302 whole entry): as above

Substance: Cx31.3, human (from UniProt Q8NFK1 1-279) (natural protein)
median junctional conductance (Gj), dual whole-cell patch clamp of DKO HEK293 cell pairs, homotypic; IQR 0–0; 17 pairs (Cx31.3, human (human)): 0 nS

Substance: Cx32 (from UniProt P08034 1-283) (natural protein)
median junctional conductance (Gj), dual whole-cell patch clamp of DKO HEK293 cell pairs, homotypic; IQR 0–16.23; 17 pairs (Cx32 (human)): 0.85 nS

Substance: Cx36 E241K (from UniProt Q9UKL4 1-321) (natural protein)
median junctional conductance (Gj), dual whole-cell patch clamp of DKO HEK293 cell pairs, homotypic; IQR 0–0; 25 pairs (Cx36 E241K (human)): 0 nS

Substance: Cx36 K238E (from UniProt Q9UKL4 1-321) (natural protein)
median junctional conductance (Gj), dual whole-cell patch clamp of DKO HEK293 cell pairs, heterotypic; IQR 0–0; 15 pairs (Cx36 K238E-E230K (human)): 0 nS
median junctional conductance (Gj), dual whole-cell patch clamp of DKO HEK293 cell pairs, heterotypic; IQR 0–0; 15 pairs (Cx36 K238E-E239K (human)): 0 nS
median junctional conductance (Gj), dual whole-cell patch clamp of DKO HEK293 cell pairs, homotypic; IQR 0–0; 19 pairs (Cx36 K238E (human)): 0 nS
median junctional conductance (Gj), dual whole-cell patch clamp of DKO HEK293 cell pairs, heterotypic; IQR 0–0; 19 pairs (Cx36 E241K (human)): 0 nS
median junctional conductance (Gj), dual whole-cell patch clamp of DKO HEK293 cell pairs, heterotypic; IQR 0–0; 18 pairs [2]: 0 nS

Substance: Cx36 K238E-E230K-E239K (from UniProt Q9UKL4 1-321) (natural protein)
median junctional conductance (Gj), dual whole-cell patch clamp of DKO HEK293 cell pairs, homotypic; IQR 0.08–0.14; 16 pairs [3]: 0.12 nS

Substance: Cx36 K238E-E230K-E239K-E241K (from UniProt Q9UKL4 1-321) (natural protein)
median junctional conductance (Gj), dual whole-cell patch clamp of DKO HEK293 cell pairs, homotypic; IQR 0–0; 16 pairs [4]: 0 nS

Substance: Cx36 K238E-E239K (from UniProt Q9UKL4 1-321) (natural protein)
median junctional conductance (Gj), dual whole-cell patch clamp of DKO HEK293 cell pairs, homotypic; IQR 0–0; 15 pairs (Cx36 K238E-E239K (human)): 0 nS

Substance: Cx36 K238Q (from UniProt Q9UKL4 1-321) (natural protein)
median junctional conductance (Gj), dual whole-cell patch clamp of DKO HEK293 cell pairs, homotypic; IQR 0–0; 16 pairs (Cx36 K238Q (human)): 0 nS

Next, values leading:

median junctional conductance (Gj), dual whole-cell patch clamp of DKO HEK293 cell pairs, heterotypic; IQR 0–0; 25 pairs (Cx43, human (human)): 0 nS
median junctional conductance (Gj), dual whole-cell patch clamp of DKO HEK293 cell pairs, heterotypic; IQR 0–0; 19 pairs (Cx32 (human)): 0 nS
median junctional conductance (Gj), dual whole-cell patch clamp of DKO HEK293 cell pairs, heterotypic; IQR 0–0; 15 pairs (Cx31.3, human (human)): 0 nS
median junctional conductance (Gj), dual whole-cell patch clamp of DKO HEK293 cell pairs, heterotypic; IQR 0–0; 19 pairs (Cx26, human (human)): 0 nS
median junctional conductance (Gj), dual whole-cell patch clamp of DKO HEK293 cell pairs, heterotypic; IQR 0–0; 26 pairs (Cx45, human (human)): 0 nS
median junctional conductance (Gj), dual whole-cell patch clamp of DKO HEK293 cell pairs, heterotypic; IQR 0–0; 15 pairs (Cx30, human (human)): 0 nS
median junctional conductance (Gj), dual whole-cell patch clamp of DKO HEK293 cell pairs, heterotypic; IQR 0–0; 21 pairs (Cx47, human (human)): 0 nS
median junctional conductance (Gj), dual whole-cell patch clamp of DKO HEK293 cell pairs, heterotypic; IQR 0–0; 16 pairs (Cx36 K238E-E230K (human)): 0 nS
median junctional conductance (Gj), dual whole-cell patch clamp of DKO HEK293 cell pairs, heterotypic; IQR 0.04–0.22; 15 pairs (Cx36 E230K (human)): 0.14 nS
median junctional conductance (Gj), dual whole-cell patch clamp of DKO HEK293 cell pairs, heterotypic; IQR 0–0.10; 15 pairs (Cx36 K238E-E239K (human)): 0.06 nS
median junctional conductance (Gj), dual whole-cell patch clamp of DKO HEK293 cell pairs, heterotypic; IQR 0.08–0.19; 18 pairs (Cx36 E239K (human)): 0.13 nS
median junctional conductance (Gj), dual whole-cell patch clamp of DKO HEK293 cell pairs, heterotypic; IQR 0.01–0.31; 16 pairs (Cx36 K238Q (human)): 0.13 nS
median junctional conductance (Gj), dual whole-cell patch clamp of DKO HEK293 cell pairs, homotypic; IQR 0.02–0.19; 38 pairs [1]: 0.1 nS
median junctional conductance (Gj), dual whole-cell patch clamp of DKO HEK293 cell pairs, heterotypic; IQR 0.11–0.41; 19 pairs (Cx36 E230K-E239K (human)): 0.22 nS
median junctional conductance (Gj), dual whole-cell patch clamp of DKO HEK293 cell pairs, heterotypic; IQR 0.05–0.24; 17 pairs (Cx36 K238A (human)): 0.16 nS
Substance: Connexin36 (Cx36), human, wildtype (from UniProt Q9UKL4 1-321) (natural protein)

median junctional conductance (Gj), dual whole-cell patch clamp of DKO HEK293 cell pairs, homotypic; IQR 0.43–21.28; 16 pairs (Cx30, human (human)): 6.55 nS
Substance: Cx30, human (from UniProt O95452 1-261) (natural protein)

median junctional conductance (Gj), dual whole-cell patch clamp of DKO HEK293 cell pairs, homotypic; IQR 0–0.14; 28 pairs (Cx36 E230K (human)): 0.01 nS
median junctional conductance (Gj), dual whole-cell patch clamp of DKO HEK293 cell pairs, heterotypic; IQR 0.05–0.22; 20 pairs (Cx36 K238E (human)): 0.1 nS
median junctional conductance (Gj), dual whole-cell patch clamp of DKO HEK293 cell pairs, heterotypic; IQR 0–0; 20 pairs (Cx36 E230K-E239K (human)): 0 nS
Substance: Cx36 E230K (from UniProt Q9UKL4 1-321) (natural protein)

median junctional conductance (Gj), dual whole-cell patch clamp of DKO HEK293 cell pairs, heterotypic; IQR 0–0.18; 15 pairs (Cx36 K238E-E230K (human)): 0.09 nS
median junctional conductance (Gj), dual whole-cell patch clamp of DKO HEK293 cell pairs, homotypic; IQR 0–0; 20 pairs (Cx36 E230K-E239K (human)): 0 nS
Substance: Cx36 E230K-E239K (from UniProt Q9UKL4 1-321) (natural protein)

median junctional conductance (Gj), dual whole-cell patch clamp of DKO HEK293 cell pairs, homotypic; IQR 0–0; 12 pairs [2]: 0 nS
Substance: Cx36 E230K-E239K-E241K (from UniProt Q9UKL4 1-321) (natural protein)

median junctional conductance (Gj), dual whole-cell patch clamp of DKO HEK293 cell pairs, heterotypic; IQR 0.08–0.2; 23 pairs (Cx36 K238E (human)): 0.11 nS
median junctional conductance (Gj), dual whole-cell patch clamp of DKO HEK293 cell pairs, homotypic; IQR 0.04–0.31; 30 pairs (Cx36 E239K (human)): 0.12 nS
median junctional conductance (Gj), dual whole-cell patch clamp of DKO HEK293 cell pairs, heterotypic; IQR 0–0.12; 21 pairs (Cx36 E230K-E239K (human)): 0.05 nS
Substance: Cx36 E239K (from UniProt Q9UKL4 1-321) (natural protein)

median junctional conductance (Gj), dual whole-cell patch clamp of DKO HEK293 cell pairs, homotypic; IQR 0.03–0.19; 18 pairs (Cx36 E241A (human)): 0.09 nS
median junctional conductance (Gj), dual whole-cell patch clamp of DKO HEK293 cell pairs, heterotypic; IQR 0–0; 16 pairs (Cx36 E230K-E239K (human)): 0 nS
Substance: Cx36 E241A (from UniProt Q9UKL4 1-321) (natural protein)

median junctional conductance (Gj), dual whole-cell patch clamp of DKO HEK293 cell pairs, homotypic; IQR 0–0; 23 pairs (Cx36 K238A (human)): 0 nS
Substance: Cx36 K238A (from UniProt Q9UKL4 1-321) (natural protein)

median junctional conductance (Gj), dual whole-cell patch clamp of DKO HEK293 cell pairs, homotypic; IQR 0–0; 15 pairs (Cx36 K238E-E230K (human)): 0 nS
Substance: Cx36 K238E-E230K (from UniProt Q9UKL4 1-321) (natural protein)

median junctional conductance (Gj), dual whole-cell patch clamp of DKO HEK293 cell pairs, homotypic; IQR 0–9.93; 17 pairs (Cx43, human (human)): 0.46 nS
Substance: Cx43, human (from UniProt P17302 1-382) (natural protein)

median junctional conductance (Gj), dual whole-cell patch clamp of DKO HEK293 cell pairs, homotypic; IQR 0.5–19.6; 29 pairs (Cx45, human (human)): 6.8 nS
Substance: Cx45, human (from UniProt P36383 1-396) (natural protein)
